Data as given in the Human Domainome abundance scans (Beltran et al. 2025).
± gives the uncertainty stated by the source.

B1: Transcriptional repressor p66-beta, residues 415 to 455; numbered along this chain, Q8WXI9 (parent)
chain: VEPFVCAQCRTDFTPHWKQEKNGKILCEQCMTSNQKKALKA
B2: 1-phosphatidylinositol 4,5-bisphosphate phosphodiesterase gamma-2, residues 772 to 827; numbered along this chain, P16885 (parent)
chain: RTVKALYDYKAKRSDELSFCRGALIHNVSKEPGGWWKGDYGTRIQQYFPSNYVEDI

Variants of: B1
Experiment: abundance fitness (aPCA) (normalised: wild type 0, dead -1); higher = more abundant; growth selection in yeast, the domain comes from the species named
Details: Homo sapiens

| Variant | abundance fitness |
| --- | --- |
| K37E | 0.142 ± 0.066 |
| K37S | -0.056 ± 0.093 |
| K37A | 0.018 ± 0.067 |
| K37Q | 0.168 ± 0.079 |
| K37M | 0.095 ± 0.13 |
| K37L | -0.036 ± 0.08 |
| K37P | 0.1 ± 0.088 |
| K37C | -0.309 ± 0.14 |
| K37T | -0.027 ± 0.11 |
| K37I | -0.092 ± 0.24 |
| K37N | -0.226 ± 0.19 |
| I25R | -0.168 ± 0.07 |
| I25C | -0.192 ± 0.12 |
| I25W | -0.287 ± 0.1 |
| I25Y | -0.307 ± 0.23 |
| I25V | -0.407 ± 0.089 |
| I25M | -0.081 ± 0.076 |
| I25Q | -0.029 ± 0.15 |
| I25E | -0.118 ± 0.11 |
| I25T | -0.054 ± 0.086 |
| I25F | -0.132 ± 0.14 |
| I25L | -0.158 ± 0.083 |
| I25S | -0.246 ± 0.12 |

| Variant | abundance fitness |
| --- | --- |
| I25D | 0.714 ± 0.27 |
| I25K | -0.026 ± 0.095 |
| I25A | -0.306 ± 0.07 |
| I25P | 0.069 ± 0.096 |
| K40S | -0.073 ± 0.11 |
| K40W | -0.393 ± 0.11 |
| K40V | -0.121 ± 0.069 |
| K40G | 0.06 ± 0.064 |
| K40L | -0.467 ± 0.12 |
| K40N | 0.079 ± 0.19 |
| K40H | -0.125 ± 0.25 |
| K40R | 0.285 ± 0.065 |
| K40P | 0.229 ± 0.24 |
| K40T | 0.071 ± 0.08 |
| K40Q | -0.218 ± 0.23 |
| K40E | 0.084 ± 0.089 |
| K40C | -0.144 ± 0.15 |
| K40A | -0.025 ± 0.071 |
| K40M | -0.066 ± 0.18 |
| L26K | -0.218 ± 0.13 |
| L26M | 0.358 ± 0.37 |
| L26D | -0.295 ± 0.097 |
| L26C | -0.075 ± 0.27 |

| Variant | abundance fitness |
| --- | --- |
| L26Q | -0.075 ± 0.11 |
| L26E | -0.194 ± 0.093 |
| L26T | -0.39 ± 0.16 |
| L26S | -0.077 ± 0.086 |
| L26P | -0.125 ± 0.088 |
| L26H | 0.12 ± 0.38 |
| L26F | 0.003 ± 0.12 |
| L26V | -0.196 ± 0.073 |
| L26G | -0.304 ± 0.059 |
| L26I | -0.004 ± 0.2 |
| L26R | -0.145 ± 0.067 |
| L26W | -0.113 ± 0.1 |
| L26N | -0.411 ± 0.22 |
| N34H | -0.077 ± 0.1 |
| N34L | -0.327 ± 0.092 |
| N34K | -0.254 ± 0.14 |
| N34I | -0.088 ± 0.41 |
| N34A | -0.076 ± 0.077 |
| N34Q | -0.083 ± 0.082 |
| N34G | -0.156 ± 0.07 |
| N34V | -0.223 ± 0.065 |
| N34R | -0.179 ± 0.064 |
| N34E | 0.127 ± 0.073 |

| Variant | abundance fitness |
| --- | --- |
| N34C | -0.197 ± 0.091 |
| N34Y | -0.287 ± 0.18 |
| N34F | -0.206 ± 0.13 |
| N34W | -0.67 ± 0.12 |
| N34T | -0.199 ± 0.13 |
| N34P | -0.257 ± 0.11 |
| N34M | -0.371 ± 0.2 |
| G23S | -0.104 ± 0.14 |
| G23H | 0.385 ± 0.27 |
| G23V | 0.092 ± 0.062 |
| G23C | -0.137 ± 0.18 |
| G23N | 0.303 ± 0.18 |
| G23D | 0.343 ± 0.12 |
| G23Q | 0.335 ± 0.22 |
| G23P | -0.016 ± 0.16 |
| G23M | 0.422 ± 0.21 |
| G23R | 0.003 ± 0.067 |
| G23L | 0.142 ± 0.14 |
| G23T | 0.045 ± 0.15 |
| G23E | 0.189 ± 0.083 |
| G23W | -0.392 ± 0.14 |
| M31V | -0.083 ± 0.069 |
| M31L | -0.274 ± 0.11 |

| Variant | abundance fitness |
| --- | --- |
| M31A | -0.038 ± 0.07 |
| M31G | 0.01 ± 0.059 |
| M31T | -0.054 ± 0.12 |
| M31P | -0.97 ± 0.29 |
| M31Y | 0.161 ± 0.19 |
| M31E | -0.033 ± 0.085 |
| M31D | -0.106 ± 0.11 |
| M31Q | 0.05 ± 0.086 |
| M31S | -0.042 ± 0.12 |
| M31K | -0.043 ± 0.14 |
| M31R | -0.178 ± 0.062 |
| M31W | -0.041 ± 0.072 |
| Q29R | 0.02 ± 0.058 |
| Q29E | -0.097 ± 0.14 |
| Q29K | 0.086 ± 0.11 |
| Q29T | -0.253 ± 0.12 |
| Q29I | -0.177 ± 0.16 |
| Q29C | -0.491 ± 0.36 |
| Q29M | -0.14 ± 0.095 |
| Q29Y | -0.329 ± 0.32 |
| Q29V | -0.389 ± 0.086 |
| Q29W | -0.3 ± 0.15 |
| Q29D | -0.083 ± 0.25 |

| Variant | abundance fitness |
| --- | --- |
| Q29S | -0.156 ± 0.093 |
| Q29P | -0.141 ± 0.12 |
| Q29F | -0.153 ± 0.12 |
| Q29H | 0.333 ± 0.12 |
| Q29L | -0.042 ± 0.087 |
| Q29G | -0.15 ± 0.07 |
| T32R | -0.145 ± 0.062 |
| T32V | -0.127 ± 0.06 |
| T32M | -0.145 ± 0.087 |
| T32S | -0.312 ± 0.13 |
| T32A | -0.047 ± 0.061 |
| T32P | -0.056 ± 0.14 |
| T32G | -0.121 ± 0.065 |
| T32K | 0.045 ± 0.26 |
| T32F | -0.143 ± 0.25 |
| T32W | -0.453 ± 0.08 |
| T32I | -0.033 ± 0.13 |
| T32E | -0.186 ± 0.092 |
| T32C | -0.177 ± 0.17 |
| T32L | -0.312 ± 0.093 |
| T32Q | -0.173 ± 0.092 |

Variants of: B2
Experiment: as above
Details: Homo sapiens

| Variant | abundance fitness |
| --- | --- |
| VTVKALYDYKAKRSDELSFCRGALIHNVSKEPGGWWKGDYGTRIQQYFPSNYVEDI [R1V] | 0.257 ± 0.36 |
| MTVKALYDYKAKRSDELSFCRGALIHNVSKEPGGWWKGDYGTRIQQYFPSNYVEDI [R1M] | -0.07 ± 0.25 |
| ITVKALYDYKAKRSDELSFCRGALIHNVSKEPGGWWKGDYGTRIQQYFPSNYVEDI [R1I] | -0.141 ± 0.32 |
| CTVKALYDYKAKRSDELSFCRGALIHNVSKEPGGWWKGDYGTRIQQYFPSNYVEDI [R1C] | -0.495 ± 0.38 |
| ETVKALYDYKAKRSDELSFCRGALIHNVSKEPGGWWKGDYGTRIQQYFPSNYVEDI [R1E] | -0.056 ± 0.14 |
| WTVKALYDYKAKRSDELSFCRGALIHNVSKEPGGWWKGDYGTRIQQYFPSNYVEDI [R1W] | 0.23 ± 0.16 |
| YTVKALYDYKAKRSDELSFCRGALIHNVSKEPGGWWKGDYGTRIQQYFPSNYVEDI [R1Y] | 0.164 ± 0.061 |
| TTVKALYDYKAKRSDELSFCRGALIHNVSKEPGGWWKGDYGTRIQQYFPSNYVEDI [R1T] | 0.417 ± 0.11 |
| GTVKALYDYKAKRSDELSFCRGALIHNVSKEPGGWWKGDYGTRIQQYFPSNYVEDI [R1G] | -0.328 ± 0.12 |
| RAVKALYDYKAKRSDELSFCRGALIHNVSKEPGGWWKGDYGTRIQQYFPSNYVEDI [T2A] | -0.287 ± 0.11 |
| RFVKALYDYKAKRSDELSFCRGALIHNVSKEPGGWWKGDYGTRIQQYFPSNYVEDI [T2F] | -0.702 ± 0.41 |
| RCVKALYDYKAKRSDELSFCRGALIHNVSKEPGGWWKGDYGTRIQQYFPSNYVEDI [T2C] | -0.344 ± 0.2 |
| RGVKALYDYKAKRSDELSFCRGALIHNVSKEPGGWWKGDYGTRIQQYFPSNYVEDI [T2G] | -0.578 ± 0.1 |
| REVKALYDYKAKRSDELSFCRGALIHNVSKEPGGWWKGDYGTRIQQYFPSNYVEDI [T2E] | -0.279 ± 0.28 |
